# According to patent US20250122267A1:
# Biological target: serum TGFβ1 of the treated mice (mouse) (UniProt P04202)
# Test: cell-based or functional assay
# Chain of UniProt P04202 (P04202 279-390 limits assumed): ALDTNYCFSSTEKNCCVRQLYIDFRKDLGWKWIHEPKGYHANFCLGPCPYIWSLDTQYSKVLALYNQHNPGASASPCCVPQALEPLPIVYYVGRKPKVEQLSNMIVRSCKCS
substance,measurement,value
"sTGFbR2-Fc(igg2Ae), fusion of the mouse TGFbR2 extracellular domain with the mouse igg domain (Fc fusion)","serum TGFβ1 after administration of the AAV encoding the soluble receptor (FIG. 2, TGFb1 knockdown versus dosage)",< 95%
